Test results: EP4473018A2 (dated 2024)

Key:
human B7-H1 = molecular target: T1, human B7-H1 (human, UniProt Q9NZQ7 19-239); assay: ELISA, antigen coated at 50 ng/well, antibody serially diluted
T1 construct: Bought protein; also called PD-L1; CD274

human B7-H7 = molecular target: T2, human B7-H7 (human, UniProt Q9UM44 23-344); assay: as above
T2 construct: Bought protein; also called HHLA2
T2 sequence (looked up): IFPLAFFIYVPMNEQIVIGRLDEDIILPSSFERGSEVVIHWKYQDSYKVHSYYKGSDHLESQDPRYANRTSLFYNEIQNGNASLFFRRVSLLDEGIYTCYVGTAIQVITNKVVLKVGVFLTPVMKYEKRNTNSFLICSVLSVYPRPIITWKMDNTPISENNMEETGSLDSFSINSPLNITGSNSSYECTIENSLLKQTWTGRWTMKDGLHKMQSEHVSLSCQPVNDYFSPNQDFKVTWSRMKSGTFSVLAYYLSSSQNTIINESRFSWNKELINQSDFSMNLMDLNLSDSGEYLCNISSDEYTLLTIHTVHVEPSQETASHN

human B7-H2 = molecular target: T3, human B7-H2 (human, UniProt O75144 19-258, limits assumed); assay: as above
T3 construct: Bought protein; also called ICOSL
T3 sequence (looked up): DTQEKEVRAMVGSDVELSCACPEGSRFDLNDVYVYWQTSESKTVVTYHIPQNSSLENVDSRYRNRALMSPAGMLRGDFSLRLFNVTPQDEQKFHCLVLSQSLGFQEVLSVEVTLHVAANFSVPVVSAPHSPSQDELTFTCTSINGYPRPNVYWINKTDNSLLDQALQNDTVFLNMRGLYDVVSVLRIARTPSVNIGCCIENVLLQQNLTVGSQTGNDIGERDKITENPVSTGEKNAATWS

human B7.2 = molecular target: T4, human B7.2 (human, UniProt P42081 24-247, limits assumed); assay: as above
T4 construct: Bought protein; also called CD86
T4 sequence (looked up): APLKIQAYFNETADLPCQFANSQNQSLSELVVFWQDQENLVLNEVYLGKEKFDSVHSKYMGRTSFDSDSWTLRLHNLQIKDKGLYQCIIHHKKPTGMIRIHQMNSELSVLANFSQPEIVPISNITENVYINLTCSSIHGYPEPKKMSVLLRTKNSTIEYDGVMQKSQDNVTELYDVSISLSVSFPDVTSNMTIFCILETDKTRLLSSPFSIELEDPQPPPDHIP

human B7-H5 = molecular target: T5, human B7-H5 (human, UniProt Q9H7M9 33-194); assay: as above
T5 construct: Bought protein; also called VISTA; GI24

human B7.1 = molecular target: T6, human B7.1 (human, UniProt P33681 35-242); assay: as above
T6 construct: Bought protein; also called CD80
T6 sequence (looked up): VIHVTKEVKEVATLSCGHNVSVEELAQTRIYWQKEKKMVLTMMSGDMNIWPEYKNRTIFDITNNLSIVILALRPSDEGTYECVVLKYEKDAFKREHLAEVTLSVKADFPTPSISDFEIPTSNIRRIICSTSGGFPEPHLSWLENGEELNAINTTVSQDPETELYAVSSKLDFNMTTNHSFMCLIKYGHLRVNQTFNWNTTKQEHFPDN

human B7-H4 = molecular target: T7, human B7-H4 (human, UniProt Q7Z7D3 25-258, limits assumed); assay: as above
T7 construct: Bought protein; also called B7S1; B7x
T7 sequence (looked up): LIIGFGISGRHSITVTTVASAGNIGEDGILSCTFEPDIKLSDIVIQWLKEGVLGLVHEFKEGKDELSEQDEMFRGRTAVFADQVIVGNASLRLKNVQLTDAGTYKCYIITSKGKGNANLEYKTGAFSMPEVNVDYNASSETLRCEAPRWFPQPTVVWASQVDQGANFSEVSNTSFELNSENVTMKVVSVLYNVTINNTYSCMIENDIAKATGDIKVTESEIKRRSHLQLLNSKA

human B7-H6 = molecular target: T8, human B7-H6 (human, UniProt Q68D85 25-262); assay: as above
T8 construct: Bought protein; also called NCR3LG1
T8 sequence (looked up): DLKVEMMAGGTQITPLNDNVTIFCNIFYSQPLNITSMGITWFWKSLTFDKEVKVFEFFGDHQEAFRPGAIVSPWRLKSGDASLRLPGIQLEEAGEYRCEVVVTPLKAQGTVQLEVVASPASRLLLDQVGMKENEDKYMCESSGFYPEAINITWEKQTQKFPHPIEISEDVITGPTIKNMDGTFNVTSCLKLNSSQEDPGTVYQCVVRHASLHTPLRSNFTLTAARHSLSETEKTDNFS

[1] = molecular target: T9, rat B7-H3 antigen protein (Sino Biologicals; Cat. No. 80380-R02H-20) (rat, UniProt Q7TPB4 29-248); assay: ELISA, antigen coated at 50 ng/well
T9 construct: Bought protein
T9 sequence (looked up): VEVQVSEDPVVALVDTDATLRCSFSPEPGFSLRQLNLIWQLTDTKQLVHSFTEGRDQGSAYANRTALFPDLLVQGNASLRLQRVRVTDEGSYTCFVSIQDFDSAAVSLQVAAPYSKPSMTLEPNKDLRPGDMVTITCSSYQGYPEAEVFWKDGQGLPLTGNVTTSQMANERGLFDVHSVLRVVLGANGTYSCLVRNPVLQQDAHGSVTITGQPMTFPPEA

[2] = molecular target: T10, Recombinant truncated human his-tag B7-H3 protein (amino acids 1-461 of SEQ ID NO:1 with a carboxy terminal … (human, UniProt Q5ZPR3 29-461)); assay: SPR (BIAcore 3000), antibody captured by anti-human Fc, his-tagged B7-H3 as analyte from 100 nM, 1:1 model
T10 construct: also called his-tagged B7-H3 protein; recombinant human his-tagged B7-H3 protein
T10 sequence: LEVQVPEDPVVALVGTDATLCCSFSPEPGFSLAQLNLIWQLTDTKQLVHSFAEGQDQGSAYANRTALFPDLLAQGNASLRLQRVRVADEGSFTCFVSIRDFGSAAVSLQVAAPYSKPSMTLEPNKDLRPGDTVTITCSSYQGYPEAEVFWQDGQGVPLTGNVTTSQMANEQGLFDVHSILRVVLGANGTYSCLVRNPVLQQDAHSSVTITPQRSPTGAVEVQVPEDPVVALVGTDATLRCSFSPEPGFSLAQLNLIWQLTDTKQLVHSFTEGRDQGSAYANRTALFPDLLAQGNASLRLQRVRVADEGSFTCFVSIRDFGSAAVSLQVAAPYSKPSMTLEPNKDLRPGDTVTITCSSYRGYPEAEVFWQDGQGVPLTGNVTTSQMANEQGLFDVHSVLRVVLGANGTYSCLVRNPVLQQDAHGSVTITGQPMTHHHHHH

[3] = molecular target: T11, Human B7-H3 protein (UniProt Q5ZPR3-1) on cells (human, UniProt Q5ZPR3 29-534); assay: flow cytometry on human osteosarcoma U2OS cells
T11 construct: This is endogenous B7-H3 on U2OS, SK-N-BE(2), A375, A549 and Panc-1 cells, on monocyte-derived dendritic cells and in patient tumour tissue; also called CD276; surface antigen expressed by human cancer cells
T11 sequence: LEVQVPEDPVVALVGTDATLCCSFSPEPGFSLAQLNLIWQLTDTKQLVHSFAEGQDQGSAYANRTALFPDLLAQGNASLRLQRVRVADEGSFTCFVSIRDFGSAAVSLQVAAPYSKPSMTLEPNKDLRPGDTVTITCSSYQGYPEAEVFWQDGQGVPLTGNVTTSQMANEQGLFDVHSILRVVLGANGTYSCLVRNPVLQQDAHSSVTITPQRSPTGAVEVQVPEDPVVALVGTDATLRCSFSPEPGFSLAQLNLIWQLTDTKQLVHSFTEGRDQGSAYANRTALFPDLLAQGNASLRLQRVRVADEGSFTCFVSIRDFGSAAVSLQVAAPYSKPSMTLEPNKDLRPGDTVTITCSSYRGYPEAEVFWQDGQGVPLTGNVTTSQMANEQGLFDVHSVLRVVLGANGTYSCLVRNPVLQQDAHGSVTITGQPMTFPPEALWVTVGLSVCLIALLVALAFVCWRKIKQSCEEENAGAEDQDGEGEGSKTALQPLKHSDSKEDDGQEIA

[4] = molecular target: T10, Recombinant truncated human his-tag …; assay: SPR (Biacore T200), antibody captured by anti-human Fc, his-tagged B7-H3 as analyte from 100 nM, 1:1 model

T1 sequence (Q9NZQ7 19-239 limits assumed): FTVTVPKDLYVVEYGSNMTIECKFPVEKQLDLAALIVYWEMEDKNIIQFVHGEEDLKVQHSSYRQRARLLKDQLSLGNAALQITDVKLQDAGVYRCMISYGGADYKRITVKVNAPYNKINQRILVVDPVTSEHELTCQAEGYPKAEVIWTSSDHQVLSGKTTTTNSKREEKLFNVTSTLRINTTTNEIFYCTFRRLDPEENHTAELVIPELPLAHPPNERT

B1: anti-B7-H3 antibody (VA clone) (antibody, V domains shown)
VH: QVQLVQSGAEVKKPGASVKVSCKASGYTFTDSYMHWVRQAPGQGLEWMGWISPRTGGTDYAQKFQGRVTMTRDTSISTAYMELSRLRSDDTAVYYCARGSSRGNDYWGQGTLVTVSS
VL: QSVLTQPASVSGSPGQSITISCTGTGSDVGGYNYVSWYQQHPGKAPKLIIYDVTKRPSGFSNRFSGSKSGNTASLTISGLQAEDEADYYCSSYTSRRTYVFGTGTKLTVL
notes: It was tested as a fully human IgG ('IgG protein', captured by anti-human Fc); also called B7-H3-VA; B7-H3 VA
B1: no binding (human B7-H1); no binding (human B7-H7); no binding (human B7-H2). B1: no binding (human B7.2); no binding (human B7-H5); no binding (human B7.1). B1: no binding (human B7-H4); no binding (human B7-H6); binds [1].

B2: anti-B7-H3 antibody (VA LALA clone) (antibody, V domains shown)
VH: B1 VH
VL: B1 VL
notes: also called B7-H3-VA LALA; B7-H3-VA-LALA
B2: no binding (human B7-H1); no binding (human B7-H7); no binding (human B7-H2). B2: no binding (human B7.2); no binding (human B7-H5); no binding (human B7.1). B2: no binding (human B7-H4); no binding (human B7-H6).

B3: B3-2E3 (antibody, V domains shown)
VH: QVQLVESGGGVVQPGRSLRLSCVASEFTFSSYTIHWVRQAPGKGLEWVAVISHDGSNKYYADSVKGRFTISRDNSKNTLYLQMSSLRAEDTAVYYCAGDRYVYNYYGMDVWGQGTTVTVSS
VL: DIVMTQSPSSLSAYVGDRVTITCRASQDIRTYLAWYQQKPGTAPKLLISGASILRSGVPSRFSGSGSGRDFTLSITSLQPEDFATYYCQQLYSYPPWTFGQGTKVEIK
notes: It was captured by anti-human Fc
B3: binds [2].

B4: B3-D1 (antibody, V domains shown)
VH: EVQLVQSGAELKKPGASVKVSCKASGHTFTSYYIHWVRQAPGQGLEWMGIINPSGDSTSYAQKFQGRVTMTRDTSTSTVYMELSSLTSEDTAVYYCARAIDYGGPYWYLDLWGRGTLVTVSS
VL: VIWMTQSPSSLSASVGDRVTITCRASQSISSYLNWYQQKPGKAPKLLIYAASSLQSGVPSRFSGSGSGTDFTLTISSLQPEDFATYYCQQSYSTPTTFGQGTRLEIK
notes: as for B3
B4: binds [2].

B5: B3-2H1 (antibody, V domains shown)
VH: QVQLQQSGAEVEKPGASVEVSCRASGYTFTSYYIHWVRQAPGQGLEWVGMITPLSGGTTYAQKFQGRVTMTRDTSTSTVYMNLSSLRSEDTAVYFCARGGRAVASSFEFWGQGTLVTVSS
VL: QSVLTQPRSVSGSPGQSVTISCTGTSSDVGGYNYVSWYQQHPGKAPKLMIYDVSKRPSGVPDRFSGSKSGNTASLTISGLQAEDEADYYCCSYAGSYTEVFGTGTKVTVL
notes: as for B3
B5: binds [2].

B6: B3-A6 (antibody, V domains shown)
VH: QVQLQQSGPGLVKPSQTLSLTCAISGDSVSSNSAAWNWIRQSPSRGLEWLGRTYYRSKWYNDYAVSVKSRITINPDTSKNQFSLQLNSVTPEDTAVYYCAREGIAVAALWDWGQGTLVTVSS
VL: QAVLTQPPSASGTPGQRVTISCSGSSSNIGSNYVSWYQQLPGTAPKLLMYSNNHRPSGVPDRFSGSKSGTSASLAISGLRTEDEADYYCAAWDDSLSGQVFGGGTKLTVL
notes: It was captured by anti-human Fc, so it was tested as an antibody with a human Fc
B6: binds [2].

B7: Enoblituzumab (B7-H3 Macrogenics; MGA271; MG-B7-H3) (antibody, human IgG1, kappa, V domains shown)
VH: EVQLVESGGGLVQPGGSLRLSCAASGFTFSSFGMHWVRQAPGKGLEWVAYISSDSSAIYYADTVKGRFTISRDNAKNSLYLQMNSLRDEDTAVYYCGRGRENIYYGSRLDYWGQGTTVTVSS
VL: DIQLTQSPSFLSASVGDRVTITCKASQNVDTNVAWYQQKPGKAPKALIYSASYRYSGVPSRFSGSGSGTDFTLTISSLQPEDFATYYCQQYNNYPFTFGQGTKLEIKR
notes: also called B7-H3 MG; Macrogenics' B7-H3
B7: binds [1]; binds [3]; binds [4].

B8: B3-4F7 (antibody, V domains shown)
VH: QVQLVQSGAEVKKPGASVKVSCKASGYTFTSYGISWVRQAPGQGLEWMGWISAYNGNTNYAQKLQGRVTMTTDTSTSTAYMELRSLRSDDTAVYYCARDGYYGSGSHPWGQGTLVTVSS
VL: QSVVTQPPSVSGAPGQRVTISCTGNSSNIGAGYDVHWYQQLPGTAPKLLIYGNSNRPSGIPDRFSGSKSGTSATLGITGLQTGDEADYYCGTWDSSLSAGVFGTGTKVTVL
notes: as for B3
B8: binds [2].
